Experimental data as given in patent US20240270826A1 (NATIONAL RESEARCH COUNCIL OF CANADA, published 2024).

What was measured:
[1] = target: Human SARS-CoV-2_Wuhan S (SmT1) (SARS-CoV-2 (Wuhan), UniProt P0DTC2 14-1208); test: tandem SPR, immobilized S, orientation 1: VHH alone
[2] = target: T1, SARS-CoV-2 S1 (aa16-685) (Wuhan) (SARS-CoV-2 Wuhan, UniProt P0DTC2 16-685); test: SPR, antigen on chip
T1 construct: NRC; FLAG, 6xHis tags

[3] = target: T2, SARS-CoV-2 spike trimer S (Wuhan, SmT1) (SARS-CoV-2 Wuhan); test: SPR, antigen on chip
T2 construct: extracellular domain

[4] = target: SARS-CoV-2 S1-RBD fused to human Fc (S1-RBD-Fc) (SARS-CoV-2 Wuhan; human); test: SPR, antigen on chip
[5] = target: T3, SARS-CoV-2 S2 (aa686-1208) (Wuhan) (SARS-CoV-2 Wuhan, UniProt P0DTC2 686-1208); test: SPR, antigen on chip
T3 construct: NRC; FLAG, 6xHis tags

[6] = target: T4, SARS-CoV-2 S on CHO-S cells (SARS-CoV-2, UniProt P0DTC2 14-1273); test: flow cytometry, CHO-S cells
T4 construct: whole, on cells

[7] = target: SARS-CoV-2 S1-NTD (aa16-305) (SARS-CoV-2 Wuhan, UniProt P0DTC2 16-305); test: ELISA
[8] = target: T3, SARS-CoV-2 S2 (aa686-1208) (Wuhan); test: ELISA

| Binder | Kd [2] [nM] | koff [2] [s⁻¹] | kon [2] [M⁻¹ s⁻¹] | Kd [3] [nM] | koff [3] [s⁻¹] | kon [3] [M⁻¹ s⁻¹] | Kd [4] [nM] | koff [4] [s⁻¹] | kon [4] [M⁻¹ s⁻¹] | binding result [5] | Bmax [6] | EC50 [6] [nM] | binding result [8] | also measured |
| --- | --- | --- | --- | --- | --- | --- | --- | --- | --- | --- | --- | --- | --- | --- |
| NRCoV2-06 VHH (VHH) VHH: EVQLVQSGGGLVQAGESLRLSCAASVSTFSSYAMGWYRQAPGKQRELVASIGFVGATYYIDSVKGRFTISRDNAKKTAYLQMNDLKPDDTAVYYCNARHYGGSEYWGQGTQVTVSS [NRCoV2-06 VHH, listing 1 of 2 here] |  |  |  |  |  |  |  |  |  |  |  |  |  | End 1st inj (RU) [1]: 38.5 RU |
| NRCoV2-06 VHH (VHH) VHH: EVQLVQSGGGLVQAGESLRLSCAASVSTFSSYAMGWYRQAPGKQRELVASIGFVGATYYIDSVKGRFTISRDNAKKTAYLQMNDLKPDDTAVYYCNARHYGGSEYWGQGTQVTVSS [NRCoV2-06 VHH, listing 2 of 2 here] | 129 | 0.0133 | 104000 | 155 | 0.00469 | 30200 | 69.9 | 0.00415 | 59400 | no binding |  |  |  |  |
| NRCoV2-20 VHH-Fc (Fc fusion, bivalent VHH-Fc) EVQLQQSGGGLVQPGGSLRLSCAASGRTFSNYVVGWFRQAPQAPGKDHEFVAVISGSDTETYYADSVKGRFTISRDNAKNTVYLQMNSLKPEDTAVYYCAADRGMSYYYTRATEYYYWGQGTQVTVSS |  |  |  |  |  |  |  |  |  |  | 12100 | 0.7 | no binding (tested: 13 nM) | binding result [7]: no binding (tested: 13 nM) |
| NRCoV2-18 VHH-Fc (Fc fusion, bivalent VHH-Fc) EVQLVESGGGLVQAGGSLRLSCVASGITISGYNMAWWRQTRGKQTERVAFINSGGSTTYSDSVKGRFTISRDNGKNTAYLQMNSLNAEDTADYFCSLHTSHDYWGQGTQVTVSS |  |  |  |  |  |  |  |  |  |  | 18300 | 0.9 | no binding (tested: 13 nM) | binding result [7]: no binding (tested: 13 nM) |
| NRCoV2-14 VHH (VHH) VHH: EVQLVSSGGGLVQAGGSLRLSCEASGTTFSHYAVGWYRQAPGKQREWVASISVFGSTTYGGSVAGRFTISRDNDKNTVDLQMNSLKPEDTAVYYCHAVNADIGGDYWGQGTQVTVSS | 3.49 | 0.00112 | 319000 | 3.1 | 0.00164 | 528000 | 3.61 | 0.000944 | 261000 | no binding |  |  |  |  |
| NRCoV2-05 VHH (VHH) VHH: EVKLVQSGGGLVQPGGSLRLSCAASGFIFSNYAMNWVRQAPGKGLEWVSGINSGGGDTRYADSVKGRFTVSRDNAKNTLYLQMNSLKPEDTGVYYCSKGPVSSYYGSGYDYRGQGTQVTVSS [NRCoV2-05 VHH, listing 1 of 2 here] |  |  |  |  |  |  |  |  |  |  |  |  |  | End 1st inj (RU) [1]: 36.9 RU |
| NRCoV2-05 VHH (VHH) VHH: EVKLVQSGGGLVQPGGSLRLSCAASGFIFSNYAMNWVRQAPGKGLEWVSGINSGGGDTRYADSVKGRFTVSRDNAKNTLYLQMNSLKPEDTGVYYCSKGPVSSYYGSGYDYRGQGTQVTVSS [NRCoV2-05 VHH, listing 2 of 2 here] | 2 | 0.00806 | 4.03e+06 | 1.72 | 0.00743 | 4.33e+06 | 2.33 | 0.00585 | 2.51e+06 | no binding |  |  |  |  |
| NRCoV2-SR13 VHH-Fc (Fc fusion, bivalent VHH-Fc) EVQLVESGGGLVTTGGSLRLSCATSGSRFGSKHMAWYRQAPGKQRDLVAAISSGGSTHYGSSVKGRFTISRDNAKSTVYLQMNSLNPEDTAVFYCNMGGWDYRSNTYIPGSRSDYWGQGTQVTVSS |  |  |  |  |  |  |  |  |  |  | 17800 | 7 | no binding (tested: 13 nM) |  |
| NRCoV2-11 VHH-Fc (Fc fusion, bivalent VHH-Fc) EVQLVSSGGGLVQPGGSLRLSCAASGSSLDSYSVSWFRQAPGKEREWISFISRYYSSTYYTDSVKGRFTTSRDGDQKTVHLQMNSLKPEDTAVYYCAARSRDFSSPFSATDTYTSWGQGTQVTVSS |  |  |  |  |  |  |  |  |  |  | 18200 | 4.3 | no binding (tested: 13 nM) | binding result [7]: no binding (tested: 13 nM) |
| NRCoV2-07 VHH-Fc (Fc fusion, bivalent VHH-Fc) QVQLVQSGGGLVQPGGSLRLSCAASGVTLDYYAIGWFRQAPGKEREAVSCISSNGRRNHYVASVRGRFTISRDNAKSTVYLQMNSLKPEDTAVYYCAAVQDVHGDNYYCTSPNEYNVWGQGTQVTVSS |  |  |  |  |  |  |  |  |  |  | 10600 | 1.1 | no binding (tested: 13 nM) | binding result [7]: no binding (tested: 13 nM) |
| NRCoV2-07 VHH (VHH) VHH: QVQLVQSGGGLVQPGGSLRLSCAASGVTLDYYAIGWFRQAPGKEREAVSCISSNGRRNHYVASVRGRFTISRDNAKSTVYLQMNSLKPEDTAVYYCAAVQDVHGDNYYCTSPNEYNVWGQGTQVTVSS | 1.02 | 0.000308 | 301000 | 1.15 | 0.000403 | 350000 | 0.894 | 0.000284 | 318000 | no binding |  |  |  |  |
| NRCoV2-03 VHH (VHH) VHH: EVQLVSSGGGLVQAGGSLRLSCTASGITFSYYAMGWYRQAPGQPRELVASMSNMDSTIYADSVKGRFTISRDNAKTTIYLQMNNLKPEDTAVYFCNIYGPTYSTRRNEYWGQGTQVTVSS |  |  |  |  |  |  |  |  |  |  |  |  |  | End 1st inj (RU) [1]: 18.1 RU |
| NRCoV2-10 VHH (VHH) VHH: QLQLQESGGGLVQPGGSLTLSCAASGNTFSRSNMHWYRQAPGAQREWVAAISSRGISTYAYSAKGRFTISRDNAKNTVSLQMNSLKPEDTAVYYCYAADDLGDYWGQGTQVTVSS [NRCoV2-10 VHH, listing 1 of 2 here] |  |  |  |  |  |  |  |  |  |  |  |  |  | End 1st inj (RU) [1]: 9.6 RU |
| NRCoV2-10 VHH (VHH) VHH: QLQLQESGGGLVQPGGSLTLSCAASGNTFSRSNMHWYRQAPGAQREWVAAISSRGISTYAYSAKGRFTISRDNAKNTVSLQMNSLKPEDTAVYYCYAADDLGDYWGQGTQVTVSS [NRCoV2-10 VHH, listing 2 of 2 here] | 0.213 | 9.54e-05 | 448000 | 0.192 | 9.27e-05 | 483000 | 0.266 | 9.32e-05 | 351000 | no binding |  |  |  |  |
| NRCoV2-MRed04 VHH-Fc (Fc fusion, bivalent VHH-Fc) EVQLVESGGGLVQPGRSLRLSCAASGNSFSISTMGWFRQAPGKERELVASIWSDTTTSYADSVKGRFTISTDNTRTKVYLQMSSLNPEDTAVYYCAADRGFVVRGQYDYWGQGTQVTVSS |  |  |  |  |  |  |  |  |  |  | 14900 | 4.2 | no binding (tested: 13 nM) | binding result [7]: no binding (tested: 13 nM) |
| NRCoV2-1d VHH-Fc (Fc fusion, bivalent VHH-Fc) EVQLVESGGGSVQPGGSLRLSCAASGSTLDYYAIGWFRQAPGKEREWVSSVSSSDGNTLYADSVKGRFTISRDNAKNTVYLQMNSLKAEDTAVYVCAADYSMRPFAVGRWHRDYEYWGQGTQVTVSS |  |  |  |  |  |  |  |  |  |  | 13800 | 1.1 | no binding (tested: 13 nM) | binding result [7]: no binding (tested: 13 nM) |
| NRCoV2-1d VHH (VHH) VHH: EVQLVESGGGSVQPGGSLRLSCAASGSTLDYYAIGWFRQAPGKEREWVSSVSSSDGNTLYADSVKGRFTISRDNAKNTVYLQMNSLKAEDTAVYVCAADYSMRPFAVGRWHRDYEYWGQGTQVTVSS |  |  |  |  |  |  |  |  |  |  |  |  |  | End 1st inj (RU) [1]: 26.3 RU |
| NRCoV2-SR02 VHH-Fc (Fc fusion, bivalent VHH-Fc) EVQLVDSGGGLVQAGGSLRLSCTASEFTLNYYSIGWFRQSPGKEREGVSCIRYSGGGIDYADSVKGRFTISRDNAKNTVYLTMNSLKPEDTAVYYCAADRLYSRACPTAGGRNYWGQGTQVTVSS |  |  |  |  |  |  |  |  |  |  | 14400 | 1.2 | no binding (tested: 13 nM) |  |
| NRCoV2-15 VHH (VHH) VHH: EVQLVSSGGGLVEAGGSLRLSCIASGSTSGRNTMGWFRQAPGKQREWVAIVSTSGATNYAGSVKGRFTLSRDNAKNAVYLQMNNLKPEDTAVYYCYAAYGGGGDYWGQGTQVTVSS | 0.333 | 0.000225 | 675000 | 0.313 | 0.000221 | 706000 | 0.342 | 0.000233 | 682000 | no binding |  |  |  |  |
| NRCoV2-SR01 VHH-Fc (Fc fusion, bivalent VHH-Fc) EVQLVQSGGGSVQAGGSLRLSCVASGFTFDNYAIGWFRQAPGKEREGVSCISGNGGVTIYADSVKGRFTISRDNAKNLVYLQMNSLKPEDTAVYYCAATGIRSTWSVYGCSRLAGPYDYWGQGTQVTVSS |  |  |  |  |  |  |  |  |  |  | 15400 | 6.6 | no binding (tested: 13 nM) |  |
| NRCoV2-04 VHH (VHH) VHH: AVQLVDSGGGLVQPGGSLRLSCAASGSPFSNVVMAWYRQAPGKQRERVAFISGGGIADYIMSVKGRFTISRDNAKNTVYLQMNSLKPEDTAVYYCWSSYESTWGQGTQVTVSS [NRCoV2-04 VHH, listing 1 of 2 here] |  |  |  |  |  |  |  |  |  |  |  |  |  | End 1st inj (RU) [1]: 41.4 RU |
| NRCoV2-04 VHH (VHH) VHH: AVQLVDSGGGLVQPGGSLRLSCAASGSPFSNVVMAWYRQAPGKQRERVAFISGGGIADYIMSVKGRFTISRDNAKNTVYLQMNSLKPEDTAVYYCWSSYESTWGQGTQVTVSS [NRCoV2-04 VHH, listing 2 of 2 here] | 11.2 | 0.018 | 1.61e+06 | 10 | 0.0198 | 1.97e+06 | 12.5 | 0.0192 | 1.53e+06 | no binding |  |  |  |  |
